Series [1] deals with the molecule itself. The series is described as follows: native MS; chloroplastic 70S ribosomes introduced into a QE-UHMR mass spectrometer; intact stalk complexes released by in-source trapping activation and their mass measured; quadrupole isolation and HCD fragmentation ejected a single L12 (pseudo-MS3).
Series [2] addresses chloroplastic ribosomal protein L10 from S. oleracea (S. oleracea (spinach)). The description is as above.

Results on one molecule are retold here after article PMC6021402, “Dissecting ribosomal particles throughout the kingdoms of life using advanced hybrid mass spectrometry methods” (Nature Communications, 2018).

B1: chloroplastic ribosomal protein L12 from S. oleracea (natural protein, S. oleracea (spinach), UniProt P02398 57-189, looked up)
chain: AVEAPEKIEQLGTQLSGLTLEEARVLVDWLQDKLGVSAASFAPAAAVAAPGAPADAAPAVEEKTEFDVSIDEVPSNARISVIKAVRALTSLGLKEAKELIEGLPKKLKEGVSKDDAEDAKKQLEDAGAKVSIV
notes: 50S ribosomal protein L12, chloroplastic, Spinacia oleracea; Six copies in each stalk complex; also called L7/L12; source: endogenous, in chloroplastic 70S ribosomes purified from spinach leaves (sucrose cushion, sucrose gradient)
Consider B1, for which the binding result in series [1] was “binds”. For the same molecule, the stoichiometry N (as a rule, the number of molecules, sites or subunits per partner or assembly) in series [2] was 6 L12 per L10.
